The source of these data is EP1758924B1 (Council of Scientific and Industrial Research, dated 2005).

Experiment [1] has as its target T1, bovine serum albumin (BSA) (bovine, UniProt P02769 25-607).
T1 construct: Negative control target in the reverse phage ELISA
In words: reverse phage ELISA, A405.

For experiment [2], the target named is T2, Hsp16.3 (16 kDa alpha-crystallin like heat-shock protein of Mycobacterium tuberculosis), recombinant, 6 X His … (Mycobacterium tuberculosis).
T2 construct: also called M. tuberculosis Acr (Hsp16.3) protein
In words: reverse phage ELISA on coated Hsp16.3, anti-M13-HRP, A405. (In general: ELISA stands for enzyme-linked immunosorbent assay.)

T1 sequence (P02769 25-607 limits assumed): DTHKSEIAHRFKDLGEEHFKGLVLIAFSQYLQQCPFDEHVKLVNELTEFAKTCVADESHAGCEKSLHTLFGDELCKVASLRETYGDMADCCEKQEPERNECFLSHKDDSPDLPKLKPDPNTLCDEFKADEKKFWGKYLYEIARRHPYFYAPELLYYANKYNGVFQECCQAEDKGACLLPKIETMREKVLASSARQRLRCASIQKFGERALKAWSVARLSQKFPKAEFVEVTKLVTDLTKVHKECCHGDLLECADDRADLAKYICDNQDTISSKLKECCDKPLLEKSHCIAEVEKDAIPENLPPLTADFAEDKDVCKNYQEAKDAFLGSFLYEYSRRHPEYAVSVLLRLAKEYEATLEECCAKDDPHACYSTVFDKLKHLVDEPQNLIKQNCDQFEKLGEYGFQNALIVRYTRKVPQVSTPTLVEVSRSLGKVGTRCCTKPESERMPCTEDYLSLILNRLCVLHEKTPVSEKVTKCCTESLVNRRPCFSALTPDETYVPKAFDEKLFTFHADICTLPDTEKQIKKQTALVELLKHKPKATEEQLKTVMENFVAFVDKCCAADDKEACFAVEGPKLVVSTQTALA

B1: phage clone displaying peptide sequence Seq ID 21 (Tyr-Pro-His-His-Phe-Lys-His-Arg-His-Ile-Pro-Ile), from the Ph.D.-12 library on bacteriophage M13 (peptide)
peptide: YPHHFKHRHIPI
notes: Tested as whole phage in the reverse phage ELISA; not shown: fused to an M13 coat protein (spacer Gly-Gly-Gly-Ser is named)
For the molecule B1, in experiment [1], the binding result was “no binding”.

B2: phage clone displaying peptide sequence Seq ID 9 (Lys-Met-His-Ala-Thr-Asn-His), from the Ph.D.-7 library on bacteriophage M13 (peptide)
peptide: KMHATNH
notes: as for B1
As for B2, the binding result in experiment [1] was “no binding”. For the same molecule, the “fold binding over BSA background” value in experiment [2] was approximately 3 fold.
